Drawing on article PMC11257983 (2024), this text covers ratio to parent for six variants.

First the molecules themselves.
B1: V5-KSR mutant KSR:E926R [Drosophila] / Flag-CNK^2–549 [Drosophila] (parent)
chain 1: MSSNNNAPASAPDTGSTNANDPISGSLSVDSNLVIIQDMIDLSANHLEGLRTQCAISSTLTQQEIRCLESKLVRYFSELLLAKMRLNERIPANGLVPHTTGNELRQWLRVVGLSQGTLTACLARLTTLEQSLRLSDEEIRQLLADSPSQREEEELRRLTRAMQNLRKCMESLESGTAASNNDPEQWHWDSWDRPTHIHRGSVGNIGLGNNSTASPRTHHRQHGVKGKNSALANSTNFKSGRQSPSATEELNSTQGSQLTLTLTPSPPNSPFTPSSGLSSSLNGTPQRSRGTPPPARKHQTLLSQSHVQVDGEQLARNRLPTDPSPDSHSSTSSDIFVDPNTNASSGGSSSNVLMVPCSPGVGHVGMGHAIKHRFTKALGFMATCTLCQKQVFHRWMKCTDCKYICHKSCAPHVPPSCGLPREYVDEFRHIKEQGGYASLPHVHGAAKGSPLVKKSTLGKPLHQQHGDSSSPSSSCTSSTPSSPALFQQRERELDQAGSSSSANLLPTPSLGKHQPSQFNFPNVTVTSSGGSGGVSLISNEPVPEQFPTAPATANGGLDSLVSSSNGHMSSLIGSQTSNASTAATLTGSLVNSTTTTSTCSFFPRKLSTAGVDKRTPFTSEYTDTHKSNDSDKTVSLSGSASTDSDRTPVRVDSTEDGDSGQWRQNSISLKEWDIPYGDLLLLERIGQGRFGTVHRALWHGDVAVKLLNEDYLQDEHMLETFRSEVANFKNTRHENLVLFMGACMNPPYLAIVTSLCKGNTLYTYIHQRREKFAMNRTLLIAQQIAQGMGYLHAREIIHKDLRTKNIFIENGKVIITDFGLFSSTKLLYCDMGLGVPHNWLCYLAPELIRALQPEKPRGECLEFTPYSDVYSFGTVWYELICGEFTFKDQPAESIIWQVGRGMKQSLANLQSGRDVKDLLMLCWTYEKEHRPQFARLLSLLEHLPKKRLARSPSHPVNLSRSAESVF
chain 2: AYINIAEWTPDQVTDWIKGLDESMKGYLYEFSKQEIGGRALLNIRPYELENLGMLRIGHQEIVLEAVENLRNFHYHLKNDNLQFMALHVATAAKNLHRELARNHAESTKIDTRILHDITRTIATLKPLVGSLERTPFRKQEMYREYCGNVLKCGLELATIAHRDRFALQPVPAIRQSAERLENLANFVIQDISDPMVLQPASLNLVTLKKRESELGFNIESSYNGIHRVTDIKYNSPAHNSGKIEDGDEIVQINYQTVVGWQHRTVLEHLREALPDVVLTVKKRPKHTKMFGQIYMQPYRLPSKKRNMAARWAAQMPSPRAAFLTLDTEQLATGGTGSAVPDPSKSLSSEKREVLTKANPVSSASDSDSSCSDIPTPTDPKLAAREIRLYYPKPRALLQRRNTICGCEYLSLKNSDLVVPSWHERKPGIGSPTNCDPGSPSIRDKSISFGYGLEMAARPTTCIGIAGDTSTDKARRMFHEARKLKQLTEDSQREFLVDRYKPGVSKVVRFDAKEDYVMKNEKFICNVENTILETFEPIPFADEGDEDA

Variants of B1 are the subject of the first assay. Description: GST pull-down, immunoblot quantification. The settings on record: with Flag-CNK^2–549 [Drosophila]; S2 cells; Flag-CNK2–549, GST-HYP + RRM (Ha-RASV12, Pyo-RAF, Myc-MEK) co-expressed; captured via GST-HYP; anti-Myc (MEK) blot; parent: 1. A general note: A western blot detects proteins with antibodies after separation by electrophoresis.
chain 1 E926R: the ratio to parent turned out to be 1.23.

With chain 1 M902D, the ratio to parent came to 0.05.

Regarding chain 1 K903D, the ratio to parent was 0.04.

For the variant chain 1 Y925D, the ratio to parent was 0.07.

The assay is the same for the next values; noted with them: with Flag-CNK^2–549 [Drosophila]; S2 cells; Flag-CNK2–549, GST-HYP + RRM (Ha-RASV12, Pyo-RAF, Myc-MEK) co-expressed; captured via GST-HYP; anti-V5 (KSR) blot; parent: 1.
With chain 1 E926R, the ratio to parent worked out at 1.07.

With chain 1 M902D, the ratio to parent stood at 0.07.

chain 1 K903D: the ratio to parent was 0.07.

Turning to chain 1 Y925D, the ratio to parent came to 0.12.

Staying with this assay, now noted: with V5-KSR [Drosophila], S2 cells, GST-HYP, Myc-MEK co-expressed, captured via GST-HYP, anti-V5 (KSR) blot, parent: 1.
With chain 2 AYINIAEWTPDQVTDWIKGLDESMKGYLYEFSKQEIGGRALLNIRPYELENLGMLRIGHQEIVLEAVENLRNFHYHLKNDNLQFMALHVATAAKNLHRELARNHAESTKIDTRILHDITRTIATLKPLVGSLERTPFRKQEMYREYCGNVLKCGLELATIAHRDRFALQPVPAIRQSAERLENLANFVIQDISKPMVLQPASLNLVTLKKRESELGFNIESSYNGIHRVTDIKYNSPAHNSGKIEDGDEIVQINYQTVVGWQHRTVLEHLREALPDVVLTVKKRPKHTKMFGQIYMQPYRLPSKKRNMAARWAAQMPSPRAAFLTLDTEQLATGGTGSAVPDPSKSLSSEKREVLTKANPVSSASDSDSSCSDIPTPTDPKLAAREIRLYYPKPRALLQRRNTICGCEYLSLKNSDLVVPSWHERKPGIGSPTNCDPGSPSIRDKSISFGYGLEMAARPTTCIGIAGDTSTDKARRMFHEARKLKQLTEDSQREFLVDRYKPGVSKVVRFDAKEDYVMKNEKFICNVENTILETFEPIPFADEGDEDA [chain 2 D194K], the ratio to parent was 0.08.

Staying with this assay, now noted: with V5-KSR [Drosophila]; S2 cells; GST-HYP + RRKM (Ha-RASV12, Pyo-RAF, V5-KSR, Myc-MEK) co-expressed; captured via GST-HYP; anti-V5 (KSR) blot; parent: 1.
For chain 2 AYINIAEWTPDQVTDWIKGLDESMKGYLYEFSKQEIGGRALLNIRPYELENLGMLRIGHQEIVLEAVENLRNFHYHLKNDNLQFMALHVATAAKNLHRELARNHAESTKIDTRILHDITRTIATLKPLVGSLERTPFRKQEMYREYCGNVLKCGLELATIAHRDRFALQPVPAIRQSAERLENLANFVIQDISKPMVLQPASLNLVTLKKRESELGFNIESSYNGIHRVTDIKYNSPAHNSGKIEDGDEIVQINYQTVVGWQHRTVLEHLREALPDVVLTVKKRPKHTKMFGQIYMQPYRLPSKKRNMAARWAAQMPSPRAAFLTLDTEQLATGGTGSAVPDPSKSLSSEKREVLTKANPVSSASDSDSSCSDIPTPTDPKLAAREIRLYYPKPRALLQRRNTICGCEYLSLKNSDLVVPSWHERKPGIGSPTNCDPGSPSIRDKSISFGYGLEMAARPTTCIGIAGDTSTDKARRMFHEARKLKQLTEDSQREFLVDRYKPGVSKVVRFDAKEDYVMKNEKFICNVENTILETFEPIPFADEGDEDA [chain 2 D194K], the ratio to parent was found to be 0.04.

The same assay, now with this note: with Flag-CNK^2–549 [Drosophila]; S2 cells; Flag-CNK2–549, V5-KSR, Myc-MEK, GST-HYP co-expressed; captured via GST-HYP; anti-Myc (MEK) blot; parent: 1.
For chain 1 R913E, the ratio to parent was 0.83.

The assay is the same for the next values; noted with them: with Flag-CNK^2–549 [Drosophila]; S2 cells; Flag-CNK2–549, V5-KSR, Myc-MEK, GST-HYP co-expressed; captured via GST-HYP; anti-V5 (KSR) blot; parent: 1.
In the case of chain 1 R913E, the ratio to parent was found to be 0.75.
